This is an account of results in patent publication US20220241354A1, “COMPOSITION” (MORINAGA MILK INDUSTRY CO., LTD., priority 2019, published 2022).

For experiment [1], the system named is Bifidobacterium infantis M-63. The experiment is described as follows: Growth promoting effect on Bifidobacterium infantis M-63 (turbidity at 600 nm). Particulars: 2′-FL 0.000 mass %, 37° C., 24 hours, n = 12. The format is cell-based. The protocol: (§1) 150 μL of a pre-culture solution of Bifidobacterium breve M-16V was added to 3 mL of MRS medium prepared in (1) (i), and was anaerobically cultured at 37° C. for 16 hours. After culturing, the cells were separated from the culture solution by centrifuging at 1500×g for 5 minutes. The culture solution was removed, and the cells were resuspended in 3 mL of glucose-free MRS medium prepared in (1) (ii).
(§2) The pre-culture solution prepared in (2) was added to the glucose-free MRS medium prepared in (1) (ii) to have a final concentration of 1 v/v %. Further, the 2′-fucosyllactose (2′-FL) solution and the lactoferrin solution prepared in (1) (iii) were respectively added to have the final concentrations shown in Table 2, and were dispensed into a 96-well plate at 200 μL/well.
(§3) Then, the cells were anaerobically cultured at 37° C. for 24 hours. After culturing, turbidity was measured at a wavelength of 600 nm using a microplate reader (Corona Electric) to evaluate the growth of bifidobacteria.
The same operation as in Example 1 was carried out except that the bifidobacteria were replaced with Bifidobacterium infantis M-63, and the growth was evaluated.

The test system of experiment [2] is Bifidobacterium breve M-16V. Briefly: Growth promoting effect on Bifidobacterium breve M-16V (turbidity at 600 nm after anaerobic culture). The format is cell-based. Particulars: 2′-FL 0.000 mass %, glucose-free MRS, 37° C., 24 hours, n = 4. The procedure:
DifcoMRS (BD) was dissolved in purified water as described in a package insert and sterilized at 115° C. for 15 minutes. L-Cysteine hydrochloride (Wako) was dissolved in purified water, filtered and sterilized, and was aseptically added to MRS medium cooled to room temperature after sterilization to have a final concentration of 0.05% by mass.
A reagent was dissolved in purified water with the composition shown in Table 1 and sterilized at 115° C. for 15 minutes. L-Cysteine hydrochloride (Wako) was dissolved in purified water, filtered and sterilized, and was aseptically added to MRS medium cooled to room temperature after sterilization to have a final concentration of 0.05% by mass.
Human milk oligosaccharide (2′-fucosyllactose (2′-FL) (Carbosynth)) and lactoferrin (produced by Morinaga Milk Industry Co., Ltd., iron content 15.8 mg/100 g) were dissolved in purified water, respectively. They were filtered and sterilized after dissolution.
as §1, §2, §3

B1: lactoferrin (protein, UniProt P24627 20-708, looked up)
Lactotransferrin: APRKNVRWCTISQPEWFKCRRWQWRMKKLGAPSITCVRRAFALECIRAIAEKKADAVTLDGGMVFEAGRDPYKLRPVAAEIYGTKESPQTHYYAVAVVKKGSNFQLDQLQGRKSCHTGLGRSAGWIIPMGILRPYLSWTESLEPLQGAVAKFFSASCVPCIDRQAYPNLCQLCKGEGENQCACSSREPYFGYSGAFKCLQDGAGDVAFVKETTVFENLPEKADRDQYELLCLNNSRAPVDAFKECHLAQVPSHAVVARSVDGKEDLIWKLLSKAQEKFGKNKSRSFQLFGSPPGQRDLLFKDSALGFLRIPSKVDSALYLGSRYLTTLKNLRETAEEVKARYTRVVWCAVGPEEQKKCQQWSQQSGQNVTCATASTTDDCIVLVLKGEADALNLDGGYIYTAGKCGLVPVLAENRKSSKHSSLDCVLRPTEGYLAVAVVKKANEGLTWNSLKDKKSCHTAVDRTAGWNIPMGLIVNQTGSCAFDEFFSQSCAPGADPKSRLCALCAGDDQGLDKCVPNSKEKYYGYTGAFRCLAEDVGDVAFVKNDTVWENTNGESTADWAKNLNREDFRLLCLDGTRKPVTEAQSCHLAVAPNHAVVSRSDRAAHVKQVLLHQQALFGKNGKNCPDKFCLFKSETKNLLFNDNTECLAKLGGRPTYEEYLGTEYVTAIANLKKCSTSPLLEACAFLTR
notes: lactoferrin produced by Morinaga Milk Industry Co., Ltd., iron content 15.8 mg/100 g
With B1, the OD600 in experiment [1] (lactoferrin 0.500 mg/mL) is 0.093; in experiment [1] (lactoferrin 1.000 mg/mL), 0.101; in experiment [2] (lactoferrin 0.031 mg/mL) it was 0.072; in experiment [2] (lactoferrin 0.063 mg/mL) it was 0.074; in experiment [2] (lactoferrin 0.125 mg/mL), 0.073; in experiment [2] (lactoferrin 0.250 mg/mL), 0.074. For the same molecule, the OD600 in experiment [2] (lactoferrin 0.500 mg/mL) was found to be 0.075; in experiment [2] (lactoferrin 1.000 mg/mL), 0.078.
